Reference: FireProtDB (doi:10.1006/jmbi.1999.2732)

Details: Homo sapiens, Thermal, DSC, Sodium phosphate 50 mM, reversible: no, whole UniProt chain shown

B1: Annexin A1 wild type, P04083 (protein)
chain: MAMVSEFLKQAWFIENEEQEYVQTVKSSKGGPGSAVSPYPTFNPSSDVAALHKAIMVKGVDEATIIDILTKRNNAQRQQIKAAYLQETGKPLDETLKKALTGHLEEVVLALLKTPAQFDADELRAAMKGLGTDEDTLIEILASRTNKEIRDINRVYREELKRDLAKDITSDTSGDFRNALLSLAKGDRSEDFGVNEDLADSDARALYEAGERRKGTDVNVFNTILTTRSYPQLRRVFQKYTKYSKHDMNKVLDLELKGDIEKCLTAIVKCATSKPAFFAEKLHQAMKGVGTRHKALIRIMVSRSEIDMNDIKAFYQKMYGISLCQAILDETKGDYEKILVALCGGN
Tm (pH 3.2): 41.1 °C
unfolding enthalpy (calorimetric) (pH 3.2): 102 kcal/mol
unfolding enthalpy (van 't Hoff) (pH 3.2): 101 kcal/mol
Tm (pH 3.4): 48.5 °C
unfolding enthalpy (calorimetric) (pH 3.4): 139 kcal/mol
unfolding enthalpy (van 't Hoff) (pH 3.4): 119 kcal/mol
Tm (pH 3.8): 56.4 °C
unfolding enthalpy (calorimetric) (pH 3.8): 152 kcal/mol
unfolding enthalpy (van 't Hoff) (pH 3.8): 142 kcal/mol
Tm (pH 4.5): 62.3 °C
unfolding enthalpy (calorimetric) (pH 4.5): 192 kcal/mol
unfolding enthalpy (van 't Hoff) (pH 4.5): 200 kcal/mol
Tm (pH 5): 62.7 °C
unfolding enthalpy (calorimetric) (pH 5): 203 kcal/mol
unfolding enthalpy (van 't Hoff) (pH 5): 206 kcal/mol
Tm (pH 6): 61.8 °C
unfolding enthalpy (calorimetric) (pH 6): 197 kcal/mol
unfolding enthalpy (van 't Hoff) (pH 6): 224 kcal/mol
Tm (pH 7): 59.9 °C
unfolding enthalpy (calorimetric) (pH 7): 200 kcal/mol
unfolding enthalpy (van 't Hoff) (pH 7): 220 kcal/mol
Tm (pH 8): 58.5 °C
unfolding enthalpy (calorimetric) (pH 8): 197 kcal/mol
unfolding enthalpy (van 't Hoff) (pH 8): 215 kcal/mol
